From publication PMC6555802

Target: CHML (fluorescence titration) (human) (UniProt P26374)
Assay: other fluorescence titration; fluorescence titration assay (Supplementary Fig. 8); conditions not stated in the text shown

CHML (fluorescence titration) (human), sequence (P26374 whole entry): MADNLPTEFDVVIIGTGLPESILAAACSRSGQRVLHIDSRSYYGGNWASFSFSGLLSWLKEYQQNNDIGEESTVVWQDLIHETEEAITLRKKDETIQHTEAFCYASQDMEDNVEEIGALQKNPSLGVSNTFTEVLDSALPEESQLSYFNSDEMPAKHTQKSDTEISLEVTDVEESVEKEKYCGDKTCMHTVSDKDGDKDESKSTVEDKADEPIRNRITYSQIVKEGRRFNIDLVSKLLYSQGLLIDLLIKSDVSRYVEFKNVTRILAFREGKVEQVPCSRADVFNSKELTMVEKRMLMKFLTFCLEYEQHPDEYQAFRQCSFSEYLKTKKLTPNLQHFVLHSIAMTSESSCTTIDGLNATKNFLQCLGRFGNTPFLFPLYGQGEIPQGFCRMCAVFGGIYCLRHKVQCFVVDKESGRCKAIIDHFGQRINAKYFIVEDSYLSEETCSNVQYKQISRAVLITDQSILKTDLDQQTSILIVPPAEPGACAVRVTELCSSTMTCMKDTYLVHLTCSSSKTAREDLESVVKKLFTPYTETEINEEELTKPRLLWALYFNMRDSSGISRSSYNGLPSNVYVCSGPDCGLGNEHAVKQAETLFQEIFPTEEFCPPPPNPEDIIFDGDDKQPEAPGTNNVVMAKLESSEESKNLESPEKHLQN

Question: Which Kd does the source give for “Rab7A (fluorescence titration) (from UniProt P51149 1-207) (natural protein)” here?
Answer: The Kd was 7.84 nM.
